Experimental data from US20180112192A1 (NATIONAL TAIWAN UNIVERSITY, published 2018).

Molecular target: T1, Wild-type EGFR-GFP (UniProt P00533 25-1210)
T1 construct: whole, on cells; not shown: GFP fusion
Experiment: co-localization by confocal and 3D-SIM microscopy, co-overexpression in CL1-5 cells (FIG. 1C)
Source text: FIGS. 1A-1C show interaction between PINK1 and EGFR in lung adenocarcinoma cells. […] 3D-structured illumination microscopy images specifically disclosed the interaction beneath the cytoplasmic membrane (III and IV).

binding result: binds
B1: myc-fused full-length PINK1 construct (amino acids 1-581) (enzyme)
chain: MAVRQALGRGLQLGRALLLRFTGKPGRAYGLGRPGPAAGCVRGERPGWAAGPGAEPRRVGLGLPNRLRFFRQSVAGLAARLQRQFVVRAWGCAGPCGRAVFLAFGLGLGLIEEKQAESRRAVSACQEIQAIFTQKSKPGPDPLDTRRLQGFRLEEYLIGQSIGKGCSAAVYEATMPTLPQNLEVTKSTGLLPGRGPGTSAPGEGQERAPGAPAFPLAIKMMWNISAGSSSEAILNTMSQELVPASRVALAGEYGAVTYRKSKRGPKQLAPHPNIIRVLRAFTSSVPLLPGALVDYPDVLPSRLHPEGLGHGRTLFLVMKNYPCTLRQYLCVNTPSPRLAAMMLLQLLEGVDHLVQQGIAHRDLKSDNILVELDPDGCPWLVIADFGCCLADESIGLQLPFSSWYVDRGGNGCLMAPEVSTARPGPRAVIDYSKADAWAVGAIAYEIFGLVNPFYGQGKAHLESRSYQEAQLPALPESVPPDVRQLVRALLQREASKRPSARVAANVLHLSLWGEHILALKNLKLDKMVGWLLQQSAATLLANRLTEKCCVETKMKMLFLANLECETLCQAALLLCSWRAAL
notes: also called PINK1-myc; not shown: myc tag
